Laboratory results from the DeepSol protein solubility set.

Assay: soluble on expression in E. coli; label from the status in PepcDB or PDB records

QTIFRVQTPYTHNGYMKTECYAFDFAPDRTLRVLAEAAKVSYKAGKQSESDRKLLGDFLNFCPIISIEGSRMKPYDVNTMLGQLKRAQIEKVVQDGFENGALYNDELLKLTEVELHDFDELKGIIGKTKAMAKSGDIDINHQGLTHEQYEEKERLEKRKKKGLTPEEKKRLDELKAKGDQRREAISILRGISIRMPLMLYGAEMKDEDKELTIDNFANLVDEQSWQEFMPRGVTKAVFRRFKRYYDPDIFREAGKRIREMARMADKFTIEERIGRIASIFSTFRNPDKETVLTPWRVVNMHLGDSIGGYCFMSEDFSTPIALPRYIEHQGITNEVFHPKSIILEINSKSGLYPLYAAYNIYRTRVEEAREKYGDVTRAFALQLWDRTLEENIFVVCKTPMARYITMRTLRGFRDVVTHTEHYPDLIENITSQPDSVVNMLRSGKRFWKINNDENMKIDAIIGNPPYQVMNQGKGNGSDPIYHKFFDLAMVLAPQGTLIHPARFLFNAGKTPKEWNEKMLSDKHYRVVDYWPNSAEVFPTVDVKGGIATSYWNKKMILGPIGMFSAFDELHHILYKVEQTNPLPFSNLVAPRELYRITDELYQEHPDLNGRQSAGHKYSFGANIFDVFPEVFFDEYPQGREEKMACIYGRANKQRCYKWCKRSYITHPENFAKYKVIIPKTNGSGAIGE
soluble on expression in E. coli: not soluble

MITKDVKEQLIQVSGPENFDDSNAGRLVYSYDATPQYQSMPDAVIAPRNTDEISRILTICSEHRVPIVPRGSGTNLCGGTCPTEGGLVLLFKHMNQILEIDEENLTATVQPGVITLDMIRAVESKGLFYPPDPSSMKISTIGGNINENSGGLRGLKYGVTRDYVIGLEVVLANGDIIRTGGKLAKDVAGYDLTRLFVGSEGTLGIVTEAIVKLVPKPETKKTLLALYENIDAAAQTVSDIIAAKIIPATLEFLDQPTLLVIEDYAKIGLPTSAKAVLLIEQDGPFETVERDMEKIEAICKKGDAVSVQTAQTEEEAFALTEARRSALSALARLKPTTILEDATVPRSEIANMVKAINDIAAKYDISICTFGHAGDGNLHPTCTTDIRNKDEMERVEQAFAEIFEKAIELGGTITGEHGVGEMKAPYLEMKLKKEGIDAMKALKAAFDPRNILNPGKMFAKDARKR
soluble on expression in E. coli: not soluble

TMEEELEPVVRHLVEQRWPFRLHATYNESITRMLDVFEKVNRDIPFNGLPWFFDHAETITPQNIERVRALGGGIAIQDRMAFQGEYFVDRYGAKAAEQTPPIKRMLEMGVPVGAGTDATRVSSYNPWTSLYWLVSGKTVGGMELYPEGLSRDTALQLFTQGSAWFSSEQGKKGQIKVGQLADLAALSLDFFSVDEEAIKGIESVLTIVDGKVVYGAGEFDKFGPPQVPVLPEWSPVTKVPGHWRVGTPSLAAAVHQCSGPCGVHAHSHEKARHSSVPVNDFQGFWGALGCSCFA
soluble on expression in E. coli: not soluble

AIAGSRQDPVPLSFVTLQEQRCVLSWFLGWNVAQKQRFLEDLISKAVPGKVSSLLDQLNTLQVNDRPPNIFECQLRLWTQWFDSWSEEERNAFLNCLEEKDPTFVAFFYDQVAGTAGRD
soluble on expression in E. coli: soluble

MSLETELPQAQDGSVRLLQITDTHLFASAEGRLLAVRTAESLAAVLERVQANDHPFDLILATGDLSQDHSPESYQRFASMMAPLARPIYWLPGNHDDGPLMTEYLHAAGISEAKQLVGEHWQVILLDTQVRGKPHGVLGDHQLAALDQALRQHPERHALIALHHQAVPVGCAWLDQHNLKPTTLFAVLARHPQQKTILFGHVHQEFDETAGMRLIASPSTCIQFKPLSDGLRAGREGHHHHHH
soluble on expression in E. coli: not soluble

MGSDKIHHHHHHSCDDDGYSIGDIGWDWATVRATGGGGYYLEGDRWGMIDPVASSIPWYKPVDGERVVAFFNPLADTDKGAQVKIEGIQEVLTKEVEDMTAENEEEFGNDPIVIYQGDMWLGGKFLNIIFHQYLPRSEKHRISLVQNKIEPEAPETPEALNVDEDGYIHLELRYNTYDDVTGYRGWGRVSYNLEEFYPTAKDAAETEFKGFKVTINSKENGEGRVIVLDLDHPVGVPEKAKDVHSTSFVK
soluble on expression in E. coli: not soluble

MSLNRRELLERISEYQFACIELNLYLDNNPRDKKALDSYNRYCDKFTQAVCDYESKYGALTNFGYESSEYPWSWISEPWPWDKSFYK
soluble on expression in E. coli: soluble

MERILLVLDDTGRGEIAFQKLKKLAEDGLRGEVYILYIREMEVPPFVPEEKELAAYHRLMTQSMKKLEGFKNQLEKAGLKVSDVSVVFGKYADRLLLVEKQIKPDLIVVGFKGGLLKRVIGGFFGKDPCEVLLKKSKASLLICRG
soluble on expression in E. coli: not soluble

TPQYESTTKMYVLSKQDNNTLTQQDMQTSLSLTKDYAELIKSRTVTEGVIAQLNLDLTHEELLKKMTVDSATDTRILSITVTDADPYEACKIANAIRDVAANHIKNVMDIDAVNVVETANIPDQQSSPSISKN
soluble on expression in E. coli: not soluble

GSPPWRGRREQCLLPPEDSRLWQYLLSRSMREHPALRSLRLLTLEQPQGDSMMTCEQAQLLANLARLIQAKKALDLGTFTGYSALALALALPADGRVVTCEVDAQPPELGRPLWRQAEAEHKIDLRLKPALETLDELLAAGEAGTFDVAVVDADKENCSAYYERCLQLLRPGGILAVLRVLWRGKVLQPPKGDVAAECVRNLNERIRRDVRVYISLLPLGDGLTLAFKI
soluble on expression in E. coli: soluble

MDYRQLHRWDLPPEEAIKVQNELRKKIKLTPYEGEPEYVAGVDLSFPGKEEGLAVIVVLEYPSFKILEVVSERGEITFPYIPGLLAFREGPLFLKAWEKLRTKPDVVVFDGQGLAHPRKLGIASHMGLFIEIPTIGVAKSRLYGTFKMPEDKRCSWSYLYDGEEIIGCVIRTKEGSAPIFVSPGHLMDVESSKRLIKAFTLPGRRIPEPTRLAHIYTQRLKKGLFLEHHHHHH
soluble on expression in E. coli: soluble

MAHHHHHHMYRNLFDKLKDGPLKISILGSGNWASAISKVVGTNAKNNYLFENEVRMWIRDEFVNGERMVDIINNKHENTKYLKGVPLPHNIVAHSDLASVINDADLLIFIVPCQYLESVLASIKESESIKIASHAKAISLTKGFIVKKNQMKLCSNYISDFLNIPCSALSGANIAMICGALKNIITLACGFCDGLNLPTNSKSAIIRNGINEMILFGKGTVTLKYVYHMIKEKNMTNEFPLFTVLHKISFENEDPSSLLKTFMNNKINQLNL
soluble on expression in E. coli: not soluble

ASGFAGHLSVGFSPVVGPVVLPESIRRFRAAYPDVLVSVIEASIDLLLPGLRNGDFDIVVGRLEEVAMPEDVRCETLYDEPVCLVAGRAHPLAGRRRISWEDAQAYPWISPQQGTPLRMRLEMELAVAGQPLPRHAVESTSVQTNVALLDRS
soluble on expression in E. coli: not soluble

MGSDKIHHHHHHMVKSNICGGSTMTQTLPKLVTFEQFIEWYPSNGARYELHKGVIVEMPPPSGEHENVVGFLAAQITLQFLQMGLPFCIPKTAFVKIQSNNSTYSPDILLLNHDNLVNEPLWSKQSTVIQAASIPLAVEVVSQCVARVPRVEATDEPVRVSTNWRDDYYDKFRDYEEMGIPEYWIVDYAAIGGKRFTGNPKQKTITICELVEGDYQMTVFRENNFVVSPLFPQLNLTAQQIFDSAL
soluble on expression in E. coli: not soluble

MGSDKIHHHHHHMNLRGKMIVIKFGGSSLRSEFKSAVSLIKALSEEKDVVVVVSALKGITDLLEKYTDTFDSRYAVEVSKTYLEFGKRMGIDTSSLSPYLKQLFNPPDLPPQALRDYILSIGELLSAAMIAEKANGAVIFPWDLFVAHGSFGNGFIDIKKSKRNVKLVKEALESGKIPIIPGFIANLNGYRVTLGRGGSDYSAVALGVLLNSELVAIMSDVEGIFTADPKMIPYSLLIPYMSYDEILIASKYGMEAIQWKAAKLAKEYEALILFGRASDWRMGTVVSNSSSHMPLLSYDQGKLLVMNMDSEIPYEVVEEGEFWRVYRVPKRDSIKIIKELHRKIIYQENAQLLGRVKA
soluble on expression in E. coli: not soluble

MAHHHHHHMLRRTQRWLLLNVSGESPSFRSKPVRNLQMDVQMSPYKEQFKDYWSTPVPWADREYGEKPKLGAPIPTRRAATAIVVGKNKHVAVDKVERGEDNDYKVLMMFREGKNRFVRDQFIFPSFPISLEDSSEDWEKILRRRGVKTAWNDLHHRLCAMRALFAQMNILLVPKEGGGLVEVEGPPGPKKWHLLVHSQPKAMKNLVDVLELPMETCLSQLLPFRCITTPTTETFRFDNLVYLVPFEKIPDVRFTISTVGEKLVWVSPMEAMARFNAGIMNMPTPNIIAISELNNECPIFADVTKRKPHDDYRSILPELYRHSQTKVATVLLPGDLMHPNTTEEDKAERYIRRFVYEKDYPFGIRAVFEERPATTEEMNEPLIQEAPKLLEEANEMDMVYADTPYPKREKQPGEIGRTRFPVPSYSFQEGAENEEGVIPVRNRNIESVGDLYSQTN
soluble on expression in E. coli: not soluble

MKEKISEKEYKALIRKTGKEHFDGEKEEYGDGTVGVWTYELRKYKLKPPVKVKYVTQEQFQEYKDSNNQRLIKIENKVDKLVEIVQIHGEQIKAQGETLQLILQTLQKMSDRLDKMEKRIDKLESKLEHHHHHH
soluble on expression in E. coli: not soluble

MSSRKELANAIRALSMDAVQKAKSGHPGAPMGMADIAEVLWRDFLKHNPQNPSWADRDRFVLSNGHGSMLIYSLLHLTGYDLPMEELKNFRQLHSKTPGHPEVGYTAGVETTTGPLGQGIANAVGMAIAEKTLAAQFNRPGHDIVDHYTYAFMGDGCMMEGISHEVCSLAGTLKLGKLIAFYDDNGISIDGHVEGWFTDDTAMRFEAYGWHVIRDIDGHDAASIKRAVEEARAVTDKPSLLMCKTIIGFGSPNKAGTHDSHGAPLGDAEIALTREQLGWKYAPFEIPSEIYAQWDAKEAGQAKESAWNEKFAAYAKAYPQEAAEFTRRMKGEMPSDFDAKAKEFIAKLQANPAKIASRKASQNAIEAFGPLLPEFLGGSADLAPSNLTLWSGSKAINEDAAGNYIHYGVREFGMTAIANGISLHGGFLPYTSTFLMFVEYARNAVRMAALMKQRQVMVYTHDSIGLGEDGPTHQPVEQVASLRVTPNMSTWRPCDQVESAVAWKYGVERQDGPTALILSRQNLAQQERTEEQLANIARGGYVLKDCAGQPELIFIATGSEVELAVAAYEKLTAEGVKARVVSMPSTDAFDKQDAAYRESVLPKAVTARVAVEAGIADYWYKYVGLNGAIVGMTTFGESAPAELLFEEFGFTVDNVVAKAKELLHHHHHH
soluble on expression in E. coli: soluble

MGSDKIHHHHHHMPAALPIKPPFKPRDISIVGAGVAGASLALSLLRRGHKVTLYCADAAPGIGASGNRQGAIYPLLTPEDDHLTRLFVPAFLYAKRFVESLAHHPLPFDFCGVLQTGHDERATERIEKLLSKTWPKQVAVRVDADEANHIAGVAIDKGGIYYPQGGWVSPAKLCEAAIEEAKTMGLECHFDVNITSITRADEGWRLNTQTGEIDAHELVLATGHRITELAQTKSLQLAPFRGQVSHVPTRGKLEQLKTVLCAHGYFTPRDASSGSHCMGASYVRGDTSVEYREQEQQENLHKMQESYPGKDWVEYLDISEGSARAGIRMVSRDHLPMAGAAPDVAAIQTQYQAIGHGPKGAQYWQTHAAPVHPGLYIFSGLGSRGLSSGPLIAECLADSLSGTLPVLDGDVMEALNPNRMWLRKLKKGKALD
soluble on expression in E. coli: not soluble

MGSDKIHHHHHHMLTHYRDYESFKQVAIPLLERRPDVHQLPLGILERGDVPILMAIAEEGDRTIVVLQTIEEQAILAGDVFTYEGIRKLSRILNCPGYVGEQAIIEPLLASHSPFQIKMDQGIYTLTTVIPPVTLDYEFRLIEERFAPQAVAFGWSFIQETGALPATERSRLKNEQTIRKHIEAETLFGLFDGEQLLAMASSSRPTASGVTISYVFTPPKWRKQGIASYLVACLSEHLLQQYPMVSLYTDWSNKTSNKIYQAVGFELAGRSMQITKRPKYQ
soluble on expression in E. coli: not soluble
